Data taken from patent US12521446B2, “Anti-CEACAM5 antibody drug conjugates” (Bristol-Myers Squibb Company, priority 2024, dated 2026).
Positions count from the first letter of the chain named. Blank lines part the entries; values can stand above or below the molecule they belong to.

Legend:
MKN45 = assay: Internalization of progeny antibodies (Incucyte, pHrodo red), Example 9; format: cell-based; details: hIgG1.3 progeny, 25 nM mAb, Table 13A
Method: (§1) Antibodies were evaluated for internalization using HCT-116-huCEACAM5, HCT-116-cyCEACAM5, and MKN45 cell lines.
The MKN45 or Ls174T cells were seeded at 10K cells/well (50 uL).
(§2) Cell lines were first analyzed for cell density and viability using a Vi-cell viability machine. The cell lines were diluted to 0.2E6 vc/mL in growth media, and a volume (50 uL) of each was dispensed to a flat-bottom 96-well plate to achieve cell counts of 10K cells/well. Ls174T media included MEM with 10% HI-FBS and 1% pen/strep. MKN45 media included RPMI (ATCC modification) with 10% HI-FBS and 1% pen/strep. HCT-116 media included McCoy's 5a with 10% HI-FBS, 1% pen/strep, and 6 μg/mL Blasticidin. Cells were allowed to adhere to wells of the 96-well plate (Corning Cat. No. 3595) at 37° C./5% CO2 for approximately 4 hours.
(§3) Each test mAb and control mAb was labeled by first pre-mixing the respective antibody with a pHrodo red (Fab conjugated to pH-sensitive; Thermo cat #Z25612) secondary reagent at a 3:1 dye:mAb molar ratio. A series of dilutions were prepared at 2× target concentration in growth media. […]
(§4) Coated plates contacted with the labeled mAbs were incubated at 37° C. for 30 minutes. Each plate was then read using an Incucyte apparatus, which collected images from the red and phase channels [10× objective; 3 images/well] for a 24-hour duration, with reads of plates every 30 minutes.

HCT116-huCEACAM5 = biological target: T1, HCT116-huCEACAM5 (Homo sapiens, UniProt P06731, T210S); assay: as above; format: cell-based; details: hIgG1.3 progeny, 25 nM mAb, Table 13A
T1 construct: expressed in transfected cells; host or cells: HCT-116
T1 sequence (P06731 35-676 T210S): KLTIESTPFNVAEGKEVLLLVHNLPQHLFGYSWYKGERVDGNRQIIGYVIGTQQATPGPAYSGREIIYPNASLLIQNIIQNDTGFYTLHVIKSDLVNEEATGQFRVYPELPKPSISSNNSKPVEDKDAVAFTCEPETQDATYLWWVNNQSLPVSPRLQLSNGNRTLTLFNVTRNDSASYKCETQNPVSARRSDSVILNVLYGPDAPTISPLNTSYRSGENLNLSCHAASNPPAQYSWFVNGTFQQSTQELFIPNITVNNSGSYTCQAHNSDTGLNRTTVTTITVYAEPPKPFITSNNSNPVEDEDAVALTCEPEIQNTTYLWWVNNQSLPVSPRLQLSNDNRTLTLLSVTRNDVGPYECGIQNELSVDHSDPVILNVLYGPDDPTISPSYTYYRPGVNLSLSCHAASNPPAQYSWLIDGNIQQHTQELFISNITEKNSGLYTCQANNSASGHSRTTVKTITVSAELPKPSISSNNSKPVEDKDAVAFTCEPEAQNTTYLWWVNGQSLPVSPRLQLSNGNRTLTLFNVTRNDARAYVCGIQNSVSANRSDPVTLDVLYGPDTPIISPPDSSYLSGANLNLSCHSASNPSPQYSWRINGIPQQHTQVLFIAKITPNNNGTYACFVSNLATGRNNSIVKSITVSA
Method: as §1, §2
as §3, with “media. The final mAb target concentration was 25 nM.” for “media.”
as §4

HCT116-cyCEACAM5 = assay: as above; format: cell-based, cynomolgus; details: hIgG1.3 progeny, 25 nM mAb, Table 13A
Method: as §1, §2
as §3, with “media. The final mAb target concentration was 25 nM.” for “media.”
Coated plates contacted with the labeled mAbs were incubated at 37° C. for 30 minutes. Each plate was then read using an Incucyte apparatus, which collected images from the red and phase channels [10× objective; 3 images/well] for a 24-hour duration, with reads of plates every 30 minutes. […]

[1] = biological target: T2, full-length human CEACAM5 (Homo sapiens, UniProt P06731, T210S); assay: SPR kinetics of progeny antibodies (BIACORE), Example 8; format: binding; details: hIgG1.3f progeny antibodies, Table 12A
T2 construct: The SPR kinetics against full-length human and cyno CEACAM5 were set up as follows
T2 sequence (P06731 35-702 T210S): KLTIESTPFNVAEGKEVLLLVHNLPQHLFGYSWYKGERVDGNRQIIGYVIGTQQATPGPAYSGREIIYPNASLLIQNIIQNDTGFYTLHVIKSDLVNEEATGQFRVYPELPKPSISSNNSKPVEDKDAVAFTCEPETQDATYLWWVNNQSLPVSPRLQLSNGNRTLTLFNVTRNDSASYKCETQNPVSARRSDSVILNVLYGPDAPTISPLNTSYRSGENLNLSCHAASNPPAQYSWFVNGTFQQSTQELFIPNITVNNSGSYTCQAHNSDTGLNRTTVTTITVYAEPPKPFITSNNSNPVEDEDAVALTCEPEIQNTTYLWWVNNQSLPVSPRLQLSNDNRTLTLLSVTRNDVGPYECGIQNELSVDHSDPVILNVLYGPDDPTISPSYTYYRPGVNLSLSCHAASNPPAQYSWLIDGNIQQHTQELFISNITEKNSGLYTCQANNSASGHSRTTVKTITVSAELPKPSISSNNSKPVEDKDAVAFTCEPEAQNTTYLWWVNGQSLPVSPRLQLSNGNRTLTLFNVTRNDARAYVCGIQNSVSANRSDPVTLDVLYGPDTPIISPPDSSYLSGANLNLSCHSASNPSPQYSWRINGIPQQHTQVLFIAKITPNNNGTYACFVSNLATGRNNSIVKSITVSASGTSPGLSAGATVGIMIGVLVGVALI
Excerpt: (§5) Antibody genes with single amino acid substitutions and combinations of substitutions were synthesized in IgG expression vectors, transiently transfected into HEK cells, and purified via Protein A. In addition, the framework germline reversions described above were also incorporated into the sequences of the progeny. Purified IgG1.3 CEACAM5 mAb clones were characterized using the BIACORE® for high-throughput SPR-based monoclonal characterization.
(§6) The BIACORE® instrument was primed with 1×HBSP+ running buffer (Cytiva catalog no.BR100671). The CM5 chip (Cytiva catalog no. 29149604) was equilibrated to room temperature, and the BIACORE® instrument was re-primed. A human antibody Fc capture kit (Cytiva catalog no. 29234600) was utilized for this analysis. The human antibody Fc capture reagent was immobilized to both flow cells in all 8 flow channels of the CM5 chip via amine-coupling using the following conditions. Immobilization was performed at a temperature of 25° C. The anti-human Fc capture reagent was diluted to a concentration of 25 μg/mL in acetate pH5 buffer. The chip surface was activated by injecting a mixture of 1-ethyl-3-(-3-dimethylaminopropyl) carbodiimide hydrochloride (EDC) and N-hydroxy succinimide (NHS) for 420 seconds at a rate of 10 microliters per minute (uL/min). A concentration (25 ug/mL) of anti-human Fc capture reagent was then injected on the surface for 420 seconds at a rate of 10 uL/min. The remaining chip surface was blocked by injecting ethanolamine for 420 seconds at a rate of 10 uL/min.
(§7) The SPR kinetics against full-length human and cyno CEACAM5 were set up as follows. The antibody capture was performed by diluting the antibodies to a concentration of 10 nM in HBSP+ buffer. The 10 nM mAbs were captured for 20 seconds at 5 uL/min to achieve capture levels of approximately 100RU. Analyte binding was performed by first making a titration series of full-length human and cyno CEACAM5 that were prepared (from 500 nM-0.23 nM) with three-fold dilutions in HBSP+ buffer. The association rate was 180 seconds at 30 uL/min. The dissociation rate was 600 seconds at 30 uL/min. Regeneration was performed using two injections of 3M magnesium chloride MgCl2 for 30 seconds at 30 uL/min. A data fit was performed using a 1:1 binding model with global Rmax. Rmax reflects the maximal response when all ligand is occupied.

full-length cyno CEACAM5 = assay: as above; format: binding, cynomolgus; details: hIgG1.3f progeny antibodies, Table 12A; for Kd: read-out: cyCEACAM5 KD
Excerpt: as §5, §6, §7

full-length cyno CEACAM5, sequence (as listed by the source): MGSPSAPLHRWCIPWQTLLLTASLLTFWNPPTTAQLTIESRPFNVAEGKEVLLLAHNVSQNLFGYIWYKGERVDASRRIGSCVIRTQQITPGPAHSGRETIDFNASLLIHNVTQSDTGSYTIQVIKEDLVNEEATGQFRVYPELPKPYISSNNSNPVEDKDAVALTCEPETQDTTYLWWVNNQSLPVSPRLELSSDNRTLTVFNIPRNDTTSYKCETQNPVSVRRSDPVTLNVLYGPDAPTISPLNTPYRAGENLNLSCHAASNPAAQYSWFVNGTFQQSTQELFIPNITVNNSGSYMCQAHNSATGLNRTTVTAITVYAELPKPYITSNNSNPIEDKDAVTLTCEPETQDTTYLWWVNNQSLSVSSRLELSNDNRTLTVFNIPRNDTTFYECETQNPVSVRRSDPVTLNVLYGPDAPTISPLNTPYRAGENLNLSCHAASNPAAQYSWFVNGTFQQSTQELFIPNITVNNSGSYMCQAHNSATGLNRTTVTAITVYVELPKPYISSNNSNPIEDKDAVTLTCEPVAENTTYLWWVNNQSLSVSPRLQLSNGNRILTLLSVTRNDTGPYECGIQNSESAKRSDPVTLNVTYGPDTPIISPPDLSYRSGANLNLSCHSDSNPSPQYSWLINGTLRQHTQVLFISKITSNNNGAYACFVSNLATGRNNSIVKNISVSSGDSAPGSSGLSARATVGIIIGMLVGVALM
HCT116-cyCEACAM5, sequence (as listed by the source): as above

- HCT116-huCEACAM5 red/phase AUC (internalization) (HCT116-huCEACAM5): 1.05
- huCEACAM5 ka [1]: 79600 M⁻¹ s⁻¹
- huCEACAM5 kd [1]: 0.00171 s⁻¹
- Kd (full-length cyno CEACAM5): 21.7 nM
B1: MBP007: hIgG1.3f progeny of MBN001; VH SEQ ID NO: 73, VL SEQ ID NO: 74 (antibody, V domains shown)
VH: QVQLVESGGGVVQPGRSLRLSCAASGIYFSSHGMHWVRQAPGKGLEWVTFISYDGSYKSYVDSVKGRFTISRDNSKNTLYLQMNSLRAEDTAVYYCATGLTGTGANDIWGQGTMVTVSS
VL: EIVLTQSPGTLSLSPGERATLSCRASQSVSSSYLAWYQQKPGQAPRLLIYGASSRATGIPDRFSGSGSGTDFTLTISRLEPEDFAVYYCQQNKPSPYTFGQGTKLEIK
- MKN45 24 hr red/phase AUC (internalization) (MKN45): 3.28
- HCT116-cyCEACAM5 red/phase AUC (internalization) (HCT116-cyCEACAM5): 1.80
- cyCEACAM5 ka (full-length cyno CEACAM5): 42700 M⁻¹ s⁻¹
- cyCEACAM5 kd (full-length cyno CEACAM5): 0.000924 s⁻¹

- HCT116-huCEACAM5 red/phase AUC (internalization) (HCT116-huCEACAM5): 1.00
- huCEACAM5 ka [1]: 50000 M⁻¹ s⁻¹
- huCEACAM5 kd [1]: 0.00102 s⁻¹
- Kd (full-length cyno CEACAM5): 20.8 nM
B2: MBP010: hIgG1.3f progeny of MBN001; VH SEQ ID NO: 79, VL SEQ ID NO: 80 (antibody, V domains shown)
VH: B1 VH with Y28T, G55S, N106F
VL: B1 VL with P94R
- MKN45 24 hr red/phase AUC (internalization) (MKN45): 3.11
- HCT116-cyCEACAM5 red/phase AUC (internalization) (HCT116-cyCEACAM5): 2.55
- cyCEACAM5 ka (full-length cyno CEACAM5): 34000 M⁻¹ s⁻¹
- cyCEACAM5 kd (full-length cyno CEACAM5): 0.000706 s⁻¹
